Reference: US20250186604A1, “ANTI-PSMA ANTIBODY CONJUGATES” (ADC THERAPEUTICS SA, priority 2023, published 2025)

Target: Human PSMA (Prostate-Specific Membrane Antigen) (human) (UniProt Q04609)
Assay: ELISA, human PSMA coated on plate, anti-human-IgG-HRP detection

Sequence of Human PSMA (Prostate-Specific Membrane Antigen) (human) (Q04609 44-750 limits assumed): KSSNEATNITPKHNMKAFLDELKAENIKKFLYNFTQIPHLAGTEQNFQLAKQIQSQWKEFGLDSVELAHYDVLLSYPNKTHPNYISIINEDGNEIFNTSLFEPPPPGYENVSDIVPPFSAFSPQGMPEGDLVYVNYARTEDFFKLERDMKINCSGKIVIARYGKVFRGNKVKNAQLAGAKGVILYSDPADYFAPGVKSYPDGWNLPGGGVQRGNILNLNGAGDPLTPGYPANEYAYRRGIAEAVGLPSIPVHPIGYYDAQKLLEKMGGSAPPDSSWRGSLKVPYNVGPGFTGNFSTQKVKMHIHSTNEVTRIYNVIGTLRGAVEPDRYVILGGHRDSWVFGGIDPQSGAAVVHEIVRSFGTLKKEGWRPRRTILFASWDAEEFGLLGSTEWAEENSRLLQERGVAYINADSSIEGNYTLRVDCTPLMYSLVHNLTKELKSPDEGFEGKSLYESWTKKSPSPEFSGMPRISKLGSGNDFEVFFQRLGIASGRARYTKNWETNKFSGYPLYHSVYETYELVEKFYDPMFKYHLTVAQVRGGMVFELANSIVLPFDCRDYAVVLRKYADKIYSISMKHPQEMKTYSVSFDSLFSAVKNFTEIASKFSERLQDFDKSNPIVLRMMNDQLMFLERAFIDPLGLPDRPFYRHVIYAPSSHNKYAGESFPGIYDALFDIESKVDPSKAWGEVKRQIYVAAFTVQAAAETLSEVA

## J591 (antibody)
  EC50: 0.271 nM
